These results are taken from FireProtDB (doi:10.1111/febs.12694).

The conditions of this data set: Halobacterium salinarum (strain ATCC 700922 / JCM 11081 / NRC-1), Thermal, transition: 2, whole UniProt chain shown.

Usually Tm stands for the temperature at the midpoint of the melting transition.

Several values for one entry are separate records, joined by “and”; a condition that tells them apart may be missing. Equal entries are not always repeated.

B1: Bacteriorhodopsin wild type, P02945 (protein)
chain: MLELLPTAVEGVSQAQITGRPEWIWLALGTALMGLGTLYFLVKGMGVSDPDAKKFYAITTLVPAIAFTMYLSMLLGYGLTMVPFGGEQNPIYWARYADWLFTTPLLLLDLALLVDADQGTILALVGADGIMIGTGLVGALTKVYSYRFVWWAISTAAMLYILYVLFFGFTSKAESMRPEVASTFKVLRNVTVVLWSAYPVVWLIGSEGAGIVPLNIETLLFMVLDVSAKVGFGLILLRSRAIFGEAEAPEPSAGDGAAATSD
As to B1, the Tm is 76.6 °C (pH 3.5, DSC); 69.2 °C and 67 °C (pH 4, UV spectroscopy); 98.2 °C (pH 7, DSC); 90.5 °C (pH 7, UV spectroscopy); 94.5 °C (pH 9, DSC); 86 °C (pH 9.5, UV spectroscopy, glycine buffer).
